Experimental data: publication doi:10.1101/2025.10.08.681152 (bioRxiv, 2025)

Molecular target: EGFP, C-terminally biotinylated (Aequorea victoria GFP, engineered EGFP …, biotin on the C-terminal biotin acceptor peptide)
Assay: BLI

B1: GBP* (engineered GFP-Binding Protein, unconjugated) (VHH)
VHH: QVQLVESGGALVQPGGSLRLSCAASGFPVNRYSMRWYRQAPGREREWVAGMSSAGDRSSYEDSVRGRFTISRDDARNTVYLQMNSLRPEDTAVYYCNVNVGFEYWGQGTQVTVSS
B1 was tested, and the Kd was 0.75 nM, the koff was 7.1e-05 s⁻¹ and the kon was 94000 M⁻¹ s⁻¹.
